From PMC4980809 (2016)

Biological target: F-actin (skeletal muscle actin) (Oryctolagus cuniculus, UniProt P68135)
Assay: actin co-sedimentation assay

Kd: 7.5 µM
B1: Alpha-actinin-2 19-266 (protein)
chain: YMIQEEEWDRDLLLDPAWEKQQRKTFTAWCNSHLRKAGTQIENIEEDFRNGLKLMLLLEVISGERLPKPDRGKMRFHKIANVNKALDYIASKGVKLVSIGAEEIVDGNVKMTLGMIWTIILRFAIQDISVEETSAKEGLLLWCQRKTAPYRNVNIQNFHTSWKDGLGLCALIHRHRPDLIDYSKLNKDDPIGNINLAMEIAEKHLDIPKMLDAEDIVNTPKPDERAIMTYVSCFYHAFAGAEQAETAA
